For one protein, Km results are on record in ChEMBL document CHEMBL2074562, “Substrate specificity of the rat liver Na(+)-bile salt cotransporter in Xenopus laevis oocytes and in CHO cells” (Am J Physiol, 1998).

The term Km denotes the substrate concentration at which the rate is half of its maximum.

What all share (assay type): functional, cell-based
Substrate in series [1]: C[C@H](CCC(=O)NCCS(=O)(=O)O)[C@H]1CC[C@H]2[C@@H]3[C@H](O)C[C@@H]4C[C@H](O)CC[C@]4(C)[C@H]3CC[C@]12C
Kind of series: (§1) TP_TRANSPORTER: uptake in Ntcp-expressing CHO cells.

Substrate in series [2]: C[C@]12CC[C@@H]3c4ccc(OS(=O)(=O)O)cc4CC[C@H]3[C@@H]1CCC2=O
Described as §1.

Substrate in series [3]: C[C@H](CCC(=O)NCC(=O)O)[C@H]1CC[C@H]2[C@@H]3[C@H](O)C[C@@H]4C[C@H](O)CC[C@]4(C)[C@H]3C[C@H](O)[C@]12C
The description is as §1.

B1: Hepatic sodium/bile acid cotransporter (Rattus norvegicus) (protein)
chain: MEVHNVSAPFNFSLPPGFGHRATDKALSIILVLMLLLIMLSLGCTMEFSKIKAHLWKPKGVIVALVAQFGIMPLAAFLLGKIFHLSNIEALAILICGCSPGGNLSNLFTLAMKGDMNLSIVMTTCSSFSALGMMPLLLYVYSKGIYDGDLKDKVPYKGIMISLVIVLIPCTIGIVLKSKRPHYVPYILKGGMIITFLLSVAVTALSVINVGNSIMFVMTPHLLATSSLMPFSGFLMGYILSALFQLNPSCRRTISMETGFQNIQLCSTILNVTFPPEVIGPLFFFPLLYMIFQLAEGLLIIIIFRCYEKIKPPKDQTKITYKAAATEDATPAALEKGTHNGNIPPLQPGPSPNGLNSGQMAN
B1: the values for the Km in series [1], in series [2] and in series [3] were 5 µM, 27 µM and 27 µM, respectively.
